Where “and” joins values, the source holds several entries; their conditions need not be identical. Equal values may be shown once. Read-outs that look alike come from different tables or passages of the source.
Tests used:
SEC = target: the molecule itself; assay: SEC
YFP-BiP [1] = target: T1, YFP-BiP (human, UniProt P11021 28-654); assay: FRET or BRET
YFP-BiP [2] = target: T1, YFP-BiP; assay: FRET or BRET; remark: listed apart in the source
YFP-BiP [3] = target: T1, YFP-BiP; assay: FRET or BRET; remark: listed apart in the source

Ki of the high concentration phase (Ki^High) (YFP-BiP [1]) [µM] | Ki of the high concentration phase (Ki^High) (YFP-BiP [2]) [µM] | Ki of the high concentration phase (Ki^High) (YFP-BiP [3]) [µM] | Binder | stoichiometry N (SEC)
– | – | – | IRE1 LD (human IRE1 luminal domain, 32-440) (domain or fragment) LLFVSTLDGSLHAVSKRTGSIKWTLKEDPVLQVPTHVEEPAFLPDPNDGSLYTLGSKNNEGLTKLPFTIPELVQASPCRSSDGILYMGKKQDIWYVIDLLTGEKQQTLSSAFADSLCPSTSLLYLGRTEYTITMYDTKTRELRWNATYFDYAASLPEDDVDYKMSHFVSNGDGLVVTVDSESGDVLWIQNYASPVVAFYVWQREGLRKVMHINVAVETLRYLTFMSGEVGRITKWKYPFPKETEAKSKLTPTLYVGKYSTSLYASPSMVHEGVAVVPRGSTLPLLEGPQTDGVTIGDKGECVITPSTDVKFDPGLKSKNKLNYLRNYWLLIGHHETPLSASTKMLERFPNNLPKHRENVIPADSEKKSFEEVINLVDQTSENAPTTVSRDVEEKPAHAPARPEAPVDSM | 2 and 4
4.3 ± 0.4 | 0.2 ± 0.01 | 5.2 ± 0.6 | CH1 (immunoglobulin fragment, inherently misfolded without CL) (domain or fragment) not shown | –

From article PMC6858872 (Nature structural & molecular biology, 2019)
